Source: PMC7688916 (2020)

B1: GvpF fused to NGFP or CGFP (split-GFP) [Halobacterium salinarum PHH1] / GvpA fused to NGFP or CGFP (split-GFP) [Halobacterium salinarum PHH1] (parent complex)
chain 1: MTENLYTYGIIEQEDLELDVEGVAGAEQVYTVDYKTLSAVVSDIDTTDPERTDEDVEAHNNVLQEVLKHEEERTVVPMSFGMAFKSARTLKGVLRGARRALRSTLNDIEGTVELGVKILGPGDDTVPREEIQENVTDQLADLSINETENDLFTDRLIINKSYLVDFEKRDAFDSAIDDVEAEYDELTIQYTGPWPPYNFVDIHIGAEQQQGGR
chain 2: MAQPDSSGLAEVLDRVLDKGVVVDVWARVSLVGIEILTVEARVVAASVDTFLHYAEEIAKIEQAELTAGAEAAPEA

Variants of: B1
Assay: split-GFP; in Hfx. volcanii; FN fusion protein used as interaction partner; two biological and three technical replicates; parent: 20; read off a plot

Row | response [relative fluorescence] | Variant
1 | ~9.8 | chain 2 K19A
2 | ~5.4 | chain 2 K19D
3 | ~19 | chain 2 A41E
4 | ~13 | chain 2 L17A
5 | ~5.6 | chain 2 G33V
6 | ~9 | chain 2 A45Y
7 | ~13 | chain 2 E65A
8 | ~12 | chain 2 R42A
9 | ~12 | chain 2 R42E
10 | ~5.2 | chain 2 A27E
11 | ~10 | chain 2 D5A
12 | ~12 | chain 2 H53A
13 | ~13 | chain 2 T38A
14 | ~14 | chain 2 A64Y
15 | ~19 | chain 2 W26A
16 | ~5.3 | chain 2 R15A
17 | ~14 | chain 2 Y54A
18 | ~16 | chain 2 I61A
19 | ~19 | chain 2 L52E
20 | ~11 | chain 2 E11A
21 | ~12 | chain 2 E57A
22 | ~19 | chain 2 V29D
23 | ~13 | chain 2 D14A
24 | ~11 | chain 2 A46Y
